Experimental findings from patent publication US7135457 (CYTOGEN, dated 2006) are described below.

Assay [1] addresses T1, human sucrase-isomaltase complex (hSI) receptor domain, amino acid residues 272-667, His-tag fusion protein (human, UniProt P14410 272-667).
T1 construct: Expressed as His-tag fusion, purified under denaturing conditions (urea or guanidine HCl), coated on plates; also called hS1 receptor domain; not shown: poly-histidine tag (pET His-tag) at the NH2-terminal end
Briefly: phage ELISA, coated hSI domain.

Assay [2] concerns the target T1, human sucrase-isomaltase complex (hSI) …. Kind of assay: phage ELISA, OD on hSI over OD on BSA.
In assay [3] the target is T2, human PEPT1 (hPEPT1) receptor domain, amino acid residues 391-571, His-tag fusion protein (human, UniProt P46059 391-571).
T2 construct: Expressed as His-tag fusion, purified under denaturing conditions, coated on plates; not shown: poly-histidine tag (pET His-tag) at the NH2-terminal end
T2 sequence: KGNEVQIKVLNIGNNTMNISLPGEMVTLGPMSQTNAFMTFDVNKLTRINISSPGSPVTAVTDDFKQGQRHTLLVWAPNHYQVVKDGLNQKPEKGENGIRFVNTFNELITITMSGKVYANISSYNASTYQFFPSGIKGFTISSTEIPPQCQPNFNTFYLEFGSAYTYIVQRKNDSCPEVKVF
Kind of assay: phage ELISA, coated hPEPT1 domain. As for the experimental part:
(§1) 6.6. Receptor ELISA Procedure 96 well plates were coated overnight with GIT receptor, BSA and, optionally, IDE (insulin degrading enzyme, an irrelevant His-fusion protein) or hTF. The plates were blocked for one hour with 0.5% BSA-PBS. After clarification, the amplified phage were diluted 1:100 in 1% BSA plus 0.05% Tween 20 in PBS and added to the plates. Following incubation of the plates on a rotator for 1 to 2 hours, the plates were washed 5 times with 1% BSA plus 0.05% Tween 20 in PBS. […] After the plates were washed 5 times, as described above, TMB substrate was added to the wells. The plates were read at 650 nm absorbance.

Assay [4] concerns the target T2, human PEPT1 (hPEPT1) receptor domain, …. Kind of assay: phage ELISA, OD on hPEPT1 over OD on BSA. Here is the method: as §1
For assay [5], the target named is T3, human D2H transporter receptor domain, amino acid residues 387-685, His-tag fusion protein (human, UniProt Q07837 387-685).
T3 construct: Expressed as His-tag fusion, purified under denaturing conditions, coated on plates; not shown: poly-histidine tag (pET His-tag) at the NH2-terminal end
T3 sequence: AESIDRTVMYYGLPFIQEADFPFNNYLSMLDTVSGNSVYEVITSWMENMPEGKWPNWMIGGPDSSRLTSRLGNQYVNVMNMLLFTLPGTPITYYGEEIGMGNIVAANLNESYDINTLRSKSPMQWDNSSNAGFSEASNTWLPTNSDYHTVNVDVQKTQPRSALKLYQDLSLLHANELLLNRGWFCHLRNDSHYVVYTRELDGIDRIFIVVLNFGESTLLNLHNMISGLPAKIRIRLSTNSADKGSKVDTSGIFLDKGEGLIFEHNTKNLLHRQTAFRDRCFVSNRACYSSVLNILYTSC
Briefly: phage ELISA, OD on D2H over OD on BSA. Here is the method:
as §1

The target of assay [6] is T3, human D2H transporter receptor domain, …. Kind of assay: phage ELISA, coated D2H domain. As for the experimental part: as §1

T1 sequence (P14410 272-667, one chain of several): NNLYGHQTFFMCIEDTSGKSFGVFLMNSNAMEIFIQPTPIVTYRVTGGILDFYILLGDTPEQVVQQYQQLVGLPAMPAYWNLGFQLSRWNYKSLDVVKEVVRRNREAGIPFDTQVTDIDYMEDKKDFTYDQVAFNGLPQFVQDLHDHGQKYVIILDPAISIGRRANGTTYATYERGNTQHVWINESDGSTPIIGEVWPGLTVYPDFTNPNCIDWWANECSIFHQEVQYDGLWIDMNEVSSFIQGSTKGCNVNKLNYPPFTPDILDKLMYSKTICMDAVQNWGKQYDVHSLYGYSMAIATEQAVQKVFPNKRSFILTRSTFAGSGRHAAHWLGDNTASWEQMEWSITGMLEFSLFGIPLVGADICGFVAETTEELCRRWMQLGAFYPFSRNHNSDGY

Consider RTTTAKGCLLGSFGVLSGCSFTPTSPPPHLGYPPHSVN (pIII and flanks not included) [phage SNiAX6], for which the OD in assay [1] turned out to be 0.369 OD 650 nm. In assay [2], this molecule returned a hSI/BSA of 7 ratio.
In turn, RWCEKHKFTAARCSAGAGFERDASRPPQPAHRDNTNRNA (pIII and flanks not included) [phage PAX43] came in with an OD in assay [3] of 0.345 OD 650 nm. In assay [4], this molecule displayed a PEPT1/BSA of 5 ratio.
For SFLRFQSPRFEDYSRTISRLRNATNPSNVSDAHNNRALA (pIII and flanks not included) [phage PAX18], in that order: 0.416 OD 650 nm and 5 ratio.
Consider SDSDGDHYGLRGGVRCSLRDRGCGLALSTVHAGPPSFYPKLSSP (pIII and flanks not included) [phage SNiAX2], for which the OD in assay [1] amounted to 0.383 OD 650 nm. In assay [2], this molecule registered a hSI/BSA of 6 ratio.
Consider SESGRCRSVSRWMTTWQTQKGGCGSNVSRGSPLDPSHQTGHATT (pIII and flanks not included) [phage DAX15], for which, in assay [5], the D2H/BSA came out at 4 ratio. In assay [6], this molecule had an OD of 0.391 OD 650 nm.
In turn, SFQVYPDHGLERHALDGTGPLYAMPGRWIRARPQNRDRQ (pIII and flanks not included) [phage PAX45] displayed an OD in assay [3] of 0.419 OD 650 nm. In assay [4], this molecule displayed a PEPT1/BSA of 5 ratio.
For SQVDSFRNSFRWYEPSRALCHGCGKRDTSTTRIHNSPSDSYPTR (pIII and flanks not included) [phage PAX17], in that order: 0.514 OD 650 nm and 5 ratio.
For SSKVSSPRDPTVPRKGGNVDYGCGHRSSARMPTSALSSITKCYT (pIII and flanks not included) [phage PAX38], in that order: 0.292 OD 650 nm and 5 ratio.
As to SKSGEGGDSSRGETGWARVRSHAMTAGRFRWYNQLPSDR (pIII and flanks not included) [phage DAB10], the D2H/BSA in assay [5] came to 4 ratio. This molecule also showed an OD in assay [6] of 0.644 OD 650 nm.
RVGQCTDSDVRRPWARSCAHQGCGAGTRNSHGCITRPLRQASAH (pIII and flanks not included) [phage SNi10] returned an OD in assay [1] of 0.57 OD 650 nm. In assay [2], the hSI/BSA is 11 ratio.
As to SPCGGSWGRFMQGGLFGGRTDGCGAHRNRTSASLEPPSSDY (pIII and flanks not included) [phage SNi34], the OD in assay [1] amounted to 0.761 OD 650 nm. The molecule further registered a hSI/BSA in assay [2] of 7 ratio.
For RSGAYESPDGRGGRSYVGGGGGCGNIGRKHNLWGLRTASPACWD (pIII and flanks not included) [phage S15], in that order: 0.478 OD 650 nm and 9 ratio.
On the same counts, the results for SHSGGMNRAYGDVFRELRDRWNATSHHTRPTPQLPRGPN (pIII and flanks not included) [phage SNi28] are 0.942 OD 650 nm and 8 ratio.
On to RTFENDGLGVGRSIQKKSDRWYASHNIRSHFASMSPAGK (pIII and flanks not included) [phage PAX14], for which, in assay [3], the OD came out at 1.1 OD 650 nm. The molecule also registered a PEPT1/BSA in assay [4] of 8 ratio.
The molecule RWCGAELCNSVTKKFRPGWRDHANPSTHHRTPPPSQSSP (pIII and flanks not included) [phage DAB3] yielded a D2H/BSA in assay [5] of 6 ratio. For the same molecule, in assay [6], the OD came to 0.406 OD 650 nm.
In assay [1], SGGEVSSWGRVNDLCARVSWTGCGTARSARTDNKGFLPKHSSLR (pIII and flanks not included) [phage SNi45] came in with an OD of 0.518 OD 650 nm. Also, the hSI/BSA in assay [2] was determined as 9 ratio.
With SKWSWSSRWGSPQDKVEKTRAGCGGSPSSTNCHPYTFAPPPQAG (pIII and flanks not included) [phage DAB24], the D2H/BSA in assay [5] is 4 ratio. In assay [6], the OD came out at 1.8 OD 650 nm.
On the same counts, the results for SHPWYRHWNHGDFSGSGQSRHTPPESPHPGRPNATI (pIII and flanks not included) [phage DAX27] are 4 ratio and 1.58 OD 650 nm.
On to SWTRWGKHTHGGFVNKSPPGKNATSPYTDAQLPSDQGPP (pIII and flanks not included) [phage PAX16], for which the OD in assay [3] came out at 0.648 OD 650 nm. Also, the PEPT1/BSA in assay [4] turned out to be 4 ratio.
As to RMEDIKNSGWRDSCRWGDLRPGCGSRQWYPSNMRSSRDYPAGGH (pIII and flanks not included) [phage DAX24], in assay [5], the D2H/BSA amounted to 5 ratio. The molecule also showed an OD in assay [6] of 0.591 OD 650 nm.
Turning to SSADAEKCAGSLLWWGRQNNSGCGSPTKKHLKHRNRSQTSSSSH (pIII and flanks not included) [phage P90], the OD in assay [3] amounted to 1.12 OD 650 nm. For the same molecule, in assay [4], the PEPT1/BSA is 9 ratio.
In assay [5], RWCGADDPCGASRWRGGNSLFGCGLRCSAAQSTPSGRIHSTSTS (pIII and flanks not included) [phage DAB7] showed a D2H/BSA of 8 ratio. In assay [6], this molecule displayed an OD of 0.702 OD 650 nm.
Turning to RASTQGGRGVAPEFGASVLGRGCGSATYYTNSTSCKDAMGHNYS (pIII and flanks not included) [phage PAX40], the OD in assay [3] is 0.461 OD 650 nm. This molecule came in with a PEPT1/BSA in assay [4] of 6 ratio.
Turning to REWRFAGPPLDLWAGPSLPSFNASSHPRALRTYWSQRPR (pIII and flanks not included) [phage DAX23], the D2H/BSA in assay [5] stood at 5 ratio. The OD in assay [6] was 0.698 OD 650 nm.
Take SARDSGPAEDGSRAVRLNGVENANTRKSSRSNPRGRRHP (pIII and flanks not included) [phage P31]: in assay [3], the OD came out at 0.807 OD 650 nm. The molecule further returned a PEPT1/BSA in assay [4] of 11 ratio.
On to SSSSDWGGVPGKVVRERFKGRGCGISITSVLTGKPNPCPEPKAA (pIII and flanks not included) [phage S22], for which, in assay [1], the OD came out at 0.399 OD 650 nm. In assay [2], this molecule showed a hSI/BSA of 7 ratio.
In assay [3], RWPSVGYKGNGSDTIDVHSNDASTKRSLIYNHRRPLFP (pIII and flanks not included) [phage PAX9] came in with an OD of 0.312 OD 650 nm. This molecule also displayed a PEPT1/BSA in assay [4] of 4 ratio.
On the same counts, the results for SRCTDNEQCPDTGTRSRSVSNARYFSSRLLKTHAPHRP (pIII and flanks not included) [phage PAX46] are 0.429 OD 650 nm and 6 ratio.
In turn, SGFWEFSRGLWDGENRKSVRSGCGFRGSSAQGPCPVTPATIDKH (pIII and flanks not included) [phage DAB30] returned a D2H/BSA in assay [5] of 6 ratio. Moreover, the OD in assay [6] is 0.704 OD 650 nm.
Take RGWKCEGSQAAYGDKDIGRSRGCGSITKNNTNHAHPSHGAVAKI (pIII and flanks not included) [phage 5PAX12]: in assay [3], the OD was 0.227 OD 650 nm. Moreover, the PEPT1/BSA in assay [4] was 6 ratio.
The molecule RSSANNCEWKSDWMRRACIARYANSSGPARAVDTKAAP (pIII and flanks not included) [phage DAB18] came in with a D2H/BSA in assay [5] of 5 ratio. In assay [6], this molecule came in with an OD of 0.467 OD 650 nm.
As for SPKLSSVGVMTKVTELPTEGPNAISIPISATLGPRNPLR (pIII and flanks not included) [phage SNiAX8], the OD in assay [1] amounted to 0.342 OD 650 nm. In addition, the hSI/BSA in assay [2] was 5 ratio.
In assay [3], SYCRVKGGGEGGHTDSNLARSGCGKVARTSRLQHINPRATPPSR (pIII and flanks not included) [phage PAX15] returned an OD of 0.301 OD 650 nm. This molecule had a PEPT1/BSA in assay [4] of 4 ratio.
As for RSITDGGINEVDLSSVSNVLENANSHRAYRKHRPTLKRP (pIII and flanks not included) [phage PAX35], the OD in assay [3] worked out at 0.474 OD 650 nm. For the same molecule, in assay [4], the PEPT1/BSA amounted to 7 ratio.
For the molecule RGAADQRRGWSENLGLPRVGWDAIAHNSYTFTSRRPRPP (pIII and flanks not included) [phage SNi38], the OD in assay [1] turned out to be 0.466 OD 650 nm. The molecule also displayed a hSI/BSA in assay [2] of 6 ratio.
